# According to patent US20230365662A1:
# Several values for one entry are separate records, joined by “and”; a condition that tells them apart may be missing. Equal entries are not always repeated.
# B1: KB001 mouse Fab FASEBA VH Y106Q (Fab, V domains shown)
# VH: EVQLKQSGPGLVAPSQSLSITCTVSGFSLSIYSVHWVRQPPGKGLEWLGMIWGGGSSDYNSALKSRLSISKDNSKSQVFLKMNSLQTDDTAMYYCARNGNFYAMDQWGQGTSVTVSS
# VL: QIVLTQSPAIMSASLGERVTMTCTASSSVSSSFLHWYQQKPGSSPQLWIYSTSNLASGVPARFSGSGSGTSYSLTISSMEAEDAATYYCHQYHHSPYIYTFGGGTKLEIK
# B2: KB001 mouse Fab FASEBA VH G26N (Fab, V domains shown)
# VH: EVQLKQSGPGLVAPSQSLSITCTVSNFSLSIYSVHWVRQPPGKGLEWLGMIWGGGSSDYNSALKSRLSISKDNSKSQVFLKMNSLQTDDTAMYYCARNGNFYAMDYWGQGTSVTVSS
# VL: QIVLTQSPAIMSASLGERVTMTCTASSSVSSSFLHWYQQKPGSSPQLWIYSTSNLASGVPARFSGSGSGTSYSLTISSMEAEDAATYYCHQYHHSPYIYTFGGGTKLEIK
# B3: KB001 mouse Fab FASEBA VH Y106N (Fab, V domains shown)
# VH: EVQLKQSGPGLVAPSQSLSITCTVSGFSLSIYSVHWVRQPPGKGLEWLGMIWGGGSSDYNSALKSRLSISKDNSKSQVFLKMNSLQTDDTAMYYCARNGNFYAMDNWGQGTSVTVSS
# VL: QIVLTQSPAIMSASLGERVTMTCTASSSVSSSFLHWYQQKPGSSPQLWIYSTSNLASGVPARFSGSGSGTSYSLTISSMEAEDAATYYCHQYHHSPYIYTFGGGTKLEIK
# B4: KB001 mouse Fab FASEBA VH Y106W (Fab, V domains shown)
# VH: EVQLKQSGPGLVAPSQSLSITCTVSGFSLSIYSVHWVRQPPGKGLEWLGMIWGGGSSDYNSALKSRLSISKDNSKSQVFLKMNSLQTDDTAMYYCARNGNFYAMDWWGQGTSVTVSS
# VL: QIVLTQSPAIMSASLGERVTMTCTASSSVSSSFLHWYQQKPGSSPQLWIYSTSNLASGVPARFSGSGSGTSYSLTISSMEAEDAATYYCHQYHHSPYIYTFGGGTKLEIK
# B5: KB001 mouse Fab FASEBA VH G26D (Fab, V domains shown)
# VH: EVQLKQSGPGLVAPSQSLSITCTVSDFSLSIYSVHWVRQPPGKGLEWLGMIWGGGSSDYNSALKSRLSISKDNSKSQVFLKMNSLQTDDTAMYYCARNGNFYAMDYWGQGTSVTVSS
# VL: QIVLTQSPAIMSASLGERVTMTCTASSSVSSSFLHWYQQKPGSSPQLWIYSTSNLASGVPARFSGSGSGTSYSLTISSMEAEDAATYYCHQYHHSPYIYTFGGGTKLEIK
# B6: KB001 mouse Fab FASEBA VH Y106K (Fab, V domains shown)
# VH: EVQLKQSGPGLVAPSQSLSITCTVSGFSLSIYSVHWVRQPPGKGLEWLGMIWGGGSSDYNSALKSRLSISKDNSKSQVFLKMNSLQTDDTAMYYCARNGNFYAMDKWGQGTSVTVSS
# VL: QIVLTQSPAIMSASLGERVTMTCTASSSVSSSFLHWYQQKPGSSPQLWIYSTSNLASGVPARFSGSGSGTSYSLTISSMEAEDAATYYCHQYHHSPYIYTFGGGTKLEIK
# B7: KB001 mouse Fab FASEBA VH S28H (Fab, V domains shown)
# VH: EVQLKQSGPGLVAPSQSLSITCTVSGFHLSIYSVHWVRQPPGKGLEWLGMIWGGGSSDYNSALKSRLSISKDNSKSQVFLKMNSLQTDDTAMYYCARNGNFYAMDYWGQGTSVTVSS
# VL: QIVLTQSPAIMSASLGERVTMTCTASSSVSSSFLHWYQQKPGSSPQLWIYSTSNLASGVPARFSGSGSGTSYSLTISSMEAEDAATYYCHQYHHSPYIYTFGGGTKLEIK
# B8: KB001 mouse Fab FASEBA VH Y106S (Fab, V domains shown)
# VH: EVQLKQSGPGLVAPSQSLSITCTVSGFSLSIYSVHWVRQPPGKGLEWLGMIWGGGSSDYNSALKSRLSISKDNSKSQVFLKMNSLQTDDTAMYYCARNGNFYAMDSWGQGTSVTVSS
# VL: QIVLTQSPAIMSASLGERVTMTCTASSSVSSSFLHWYQQKPGSSPQLWIYSTSNLASGVPARFSGSGSGTSYSLTISSMEAEDAATYYCHQYHHSPYIYTFGGGTKLEIK
# Target: HRgpA-6H (Porphyromonas gingivalis) (UniProt P28784)
# Test: ELISA on coated HRgpA-6H
# UniProt P28784, sequence (P28784 228-991 limits assumed): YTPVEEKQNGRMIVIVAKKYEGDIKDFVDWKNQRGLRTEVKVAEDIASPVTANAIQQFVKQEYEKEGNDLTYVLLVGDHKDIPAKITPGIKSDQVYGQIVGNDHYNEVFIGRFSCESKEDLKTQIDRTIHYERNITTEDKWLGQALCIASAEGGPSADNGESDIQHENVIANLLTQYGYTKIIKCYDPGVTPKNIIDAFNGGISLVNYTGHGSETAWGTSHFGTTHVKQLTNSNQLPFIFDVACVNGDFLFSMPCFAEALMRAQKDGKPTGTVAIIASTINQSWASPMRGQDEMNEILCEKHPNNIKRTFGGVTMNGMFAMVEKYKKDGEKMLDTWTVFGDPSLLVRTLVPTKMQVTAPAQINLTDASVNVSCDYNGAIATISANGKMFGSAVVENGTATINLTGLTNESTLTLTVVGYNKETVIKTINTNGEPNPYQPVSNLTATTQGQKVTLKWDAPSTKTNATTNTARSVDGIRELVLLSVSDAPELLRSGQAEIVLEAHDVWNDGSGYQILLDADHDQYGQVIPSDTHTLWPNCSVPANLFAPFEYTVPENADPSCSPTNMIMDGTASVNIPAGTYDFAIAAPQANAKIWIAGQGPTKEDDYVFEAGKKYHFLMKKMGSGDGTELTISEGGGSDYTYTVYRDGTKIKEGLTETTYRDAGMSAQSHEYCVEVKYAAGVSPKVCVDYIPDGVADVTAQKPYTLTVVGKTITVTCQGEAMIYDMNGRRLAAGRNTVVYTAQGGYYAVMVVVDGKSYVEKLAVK
Binder,OD450nm,Ratio OD(Variant)/OD(WT)
B1,0.792,1.03
B2,0.445,0.876
B3,0.792,1.03
B4,0.791 and 0.809 and 0.82,1.03 and 1.05 and 1.07
B5,0.47 and 0.481,0.925 and 0.947
B6,0.807,1.05
B7,0.511 and 0.526,0.946 and 0.974
B8,0.852 and 0.849,1.11 and 1.1
